Laboratory results taken from the supplement of paper PMC11246515.
± gives the standard deviation of the averaged measurements.

Test: total protein half-life in vivo (active degradation + dilution); higher = more stable protein
[1] = E. coli NCM3722 delta-clpP delta-lon delta-hslV, growth: N-lim chemostat, doubling time 6 h
[2] = E. coli NCM3722 delta-clpP, growth: N-lim chemostat, doubling time 6 h
[3] = wild type E. coli NCM3722, growth: C-lim chemostat, doubling time 3 h
[4] = wild type E. coli NCM3722, growth: C-lim chemostat, doubling time 6 h
[5] = wild type E. coli NCM3722, growth: C-lim chemostat, doubling time 12 h
[6] = E. coli NCM3722 delta-hslV, growth: N-lim chemostat, doubling time 6 h
[7] = E. coli NCM3722 delta-lon, growth: N-lim chemostat, doubling time 6 h
[8] = E. coli NCM3722 delta-smpB, growth: N-lim chemostat, doubling time 6 h
[9] = wild type E. coli NCM3722, growth: N-lim chemostat, doubling time 6 h
[10] = wild type E. coli NCM3722, growth: N-lim chemostat, doubling time 12 h
[11] = wild type E. coli NCM3722, growth: P-lim chemostat, doubling time 6 h
[12] = wild type E. coli NCM3722, growth: P-lim chemostat, doubling time 12 h

MISSLWIAKTGLDAQQTNMDVIANNLANVSTNGFKRQRAVFEDLLYQTIRQPGAQSSEQTTLPSGLQIGTGVRPVATERLHSQGNLSQTNNSKDVAIKGQGFFQVMLPDGSSAYTRDGSFQVDQNGQLVTAGGFQVQPAITIPANALSITIGRDGVVSVTQQGQAAPVQVGQLNLTTFMNDTGLESIGENLYTETQSSGAPNESTPGLNGAGLLYQGYVETSNVNVAEELVNMIQVQRAYEINSKAVSTTDQMLQKLTQL [P0ABX5]
total protein half-life in vivo [1]: 4.91 ± 2.6 h | total protein half-life in vivo [2]: > 8 h | total protein half-life in vivo [3]: 1.53 ± 0.27 h | total protein half-life in vivo [4]: 5.1 ± 3.6 h | total protein half-life in vivo [5]: 6.45 ± 1.9 h

P0AGE9
total protein half-life in vivo [1]: 4.58 ± 0.064 h | total protein half-life in vivo [2]: 4.71 ± 0.71 h | total protein half-life in vivo [6]: 4.68 ± 0.31 h | total protein half-life in vivo [7]: 5.1 ± 0.21 h | total protein half-life in vivo [8]: 4.28 ± 0.29 h | total protein half-life in vivo [3]: 3.06 ± 0.069 h | total protein half-life in vivo [4]: 5.43 ± 0.12 h | total protein half-life in vivo [5]: 9.89 ± 1.2 h | total protein half-life in vivo [9]: 4.64 ± 0.056 h | total protein half-life in vivo [10]: 7.237 ± 0.026 h | total protein half-life in vivo [11]: 5.85 ± 0.2 h | total protein half-life in vivo [12]: 11.9 ± 0.51 h

MKDKVYKRPVSILVVIYAQDTKRVLMLQRRDDPDFWQSVTGSVEEGETAPQAAMREVKEEVTIDVVAEQLTLIDCQRTVEFEIFSHLRHRYAPGVTRNTESWFCLALPHERQIVFTEHLAYKWLDAPAAAALTKSWSNRQAIEQFVINAA [P0AFC0]
total protein half-life in vivo [1]: 3.93 h | total protein half-life in vivo [2]: > 8 h | total protein half-life in vivo [7]: 3.07 h | total protein half-life in vivo [8]: 2.07 h | total protein half-life in vivo [4]: > 8 h | total protein half-life in vivo [5]: 4.68 ± 0.41 h | total protein half-life in vivo [9]: 2.22 ± 0.26 h | total protein half-life in vivo [10]: 3.45 h | total protein half-life in vivo [11]: 2.75 ± 0.2 h

MRVTDFSFELPESLIAHYPMPERSSCRLLSLDGPTGALTHGTFTDLLDKLNPGDLLVFNNTRVIPARLFGRKASGGKIEVLVERMLDDKRILAHIRASKAPKPGAELLLGDDESINATMTARHGALFEVEFNDERSVLDILNSIGHMPLPPYIDRPDEDADRELYQTVYSEKPGAVAAPTAGLHFDEPLLEKLRAKGVEMAFVTLHVGAGTFQPVRVDTIEDHIMHSEYAEVPQDVVDAVLAAKARGNRVIAVGTTSVRSLESAAQAAKNDLIEPFFDDTQIFIYPGFQYKVVDALVTNFHLPESTLIMLVSAFAGYQHTMNAYKAAVEEKYRFFSYGDAMFITYNPQAINERVGE [P0A7F9]
total protein half-life in vivo [1]: 4.09 ± 0.78 h | total protein half-life in vivo [2]: 3.64 ± 0.2 h | total protein half-life in vivo [6]: 4.44 ± 1.4 h | total protein half-life in vivo [7]: 4.49 ± 0.24 h | total protein half-life in vivo [8]: 3.41 ± 0.096 h | total protein half-life in vivo [3]: 2.85 ± 0.04 h | total protein half-life in vivo [4]: 4.82 ± 0.32 h | total protein half-life in vivo [5]: 7.45 ± 0.19 h | total protein half-life in vivo [9]: 3.66 ± 0.14 h | total protein half-life in vivo [10]: 5.03 ± 0.34 h | total protein half-life in vivo [11]: 5.46 ± 0.24 h | total protein half-life in vivo [12]: 9.48 ± 0.17 h

MTLDLPRRFPWPTLLSVCIHGAVVAGLLYTSVHQVIELPAPAQPISVTMVTPADLEPPQAVQPPPEPVVEPEPEPEPIPEPPKEAPVVIEKPKPKPKPKPKPVKKVQEQPKRDVKPVESRPASPFENTAPARLTSSTATAATSKPVTSVASGPRALSRNQPQYPARAQALRIEGQVKVKFDVTPDGRVDNVQILSAKPANMFEREVKNAMRRWRYEPGKPGSGIVVNILFKINGTTEIQ
total protein half-life in vivo [1]: 3.05 ± 0.064 h | total protein half-life in vivo [2]: 3.18 ± 0.081 h | total protein half-life in vivo [6]: 2.27 ± 0.21 h | total protein half-life in vivo [7]: 1.79 ± 0.029 h | total protein half-life in vivo [8]: 2.92 ± 1.7 h | total protein half-life in vivo [3]: 1.93 ± 0.35 h | total protein half-life in vivo [4]: 3.6 ± 0.45 h | total protein half-life in vivo [5]: 5.81 ± 0.11 h | total protein half-life in vivo [9]: 2.33 ± 0.17 h | total protein half-life in vivo [10]: 3.29 ± 0.16 h | total protein half-life in vivo [11]: 3.17 ± 0.13 h | total protein half-life in vivo [12]: 6.09 ± 0.82 h

MIEILHEYWKPLLWTDGYRFTGVAITLWLLILSVVIGGVLALFLAIGRVSSNKYIQFPIWLFTYIFRGTPLYVQLLVFYSGMYTLEIVKGTEFLNAFFRSGLNCTVLALTLNTCAYTTEIFAGAIRSVPHGEIEAARAYGFSTFKMYRCIILPSALRIALPAYSNEVILMLHSTALAFTATVPDLLKIARDINAATYQPFTAFGIAAVLYLIISYVLISLFRRAEKRWLQHVKPSSTH [P0AEU3]
total protein half-life in vivo [1]: > 8 h | total protein half-life in vivo [2]: 6.1106 ± 0.00052 h | total protein half-life in vivo [6]: 6.07 h | total protein half-life in vivo [7]: 6.71 ± 0.91 h | total protein half-life in vivo [8]: 7.16 ± 0.54 h | total protein half-life in vivo [3]: > 4 h | total protein half-life in vivo [4]: 5.71 ± 0.54 h | total protein half-life in vivo [5]: 11.3 ± 1.3 h | total protein half-life in vivo [9]: 6.75 ± 0.49 h | total protein half-life in vivo [10]: 11 ± 3.6 h | total protein half-life in vivo [11]: 6.32 h | total protein half-life in vivo [12]: 11.92 ± 0.04 h

MTEKKYIVALDQGTTSSRAVVMDHDANIISVSQREFEQIYPKPGWVEHDPMEIWATQSSTLVEVLAKADISSDQIAAIGITNQRETTIVWEKETGKPIYNAIVWQCRRTAEICEHLKRDGLEDYIRSNTGLVIDPYFSGTKVKWILDHVEGSRERARRGELLFGTVDTWLIWKMTQGRVHVTDYTNASRTMLFNIHTLDWDDKMLEVLDIPREMLPEVRRSSEVYGQTNIGGKGGTRIPISGIAGDQQAALFGQLCVKEGMAKNTYGTGCFMLMNTGEKAVKSENGLLTTIACGPTGEVNYALEGAVFMAGASIQWLRDEMKLINDAYDSEYFATKVQNTNGVYVVPAFTGLGAPYWDPYARGAIFGLTRGVNANHIIRATLESIAYQTRDVLEAMQADSGIRLHALRVDGGAVANNFLMQFQSDILGTRVERPEVREVTALGAAYLAGLAVGFWQNLDELQEKAVIEREFRPGIETTERNYRYAGWKKAVKRAMAWEEHDE [P0A6F3]
total protein half-life in vivo [2]: 6.74 ± 0.14 h | total protein half-life in vivo [6]: 6.32 ± 0.39 h | total protein half-life in vivo [8]: 5.64 ± 0.067 h | total protein half-life in vivo [3]: 3.28 ± 0.085 h | total protein half-life in vivo [4]: 5.398 ± 0.033 h | total protein half-life in vivo [5]: 9.61 ± 1.5 h | total protein half-life in vivo [9]: 5.983 ± 0.059 h | total protein half-life in vivo [10]: 12.7 ± 0.32 h | total protein half-life in vivo [11]: 6.31 ± 0.66 h | total protein half-life in vivo [12]: 13 ± 0.85 h
